B1: IL6R-BP201/IL6R-L (antibody, human IgG1, kappa, name in EU numbering)
heavy: QVQLQESGPGLVKPSETLSLTCAVSGHSISHDHAWSWVRQPPGEGLEWIGFISYSGITNYNPSLQGRVTISRDNSKNTLYLQMNSLRAEDTAVYYCARSLARTTAMDYWGEGTLVTVSSASTKGPSVFPLAPSSKSTSGGTAALGCLVKDYFPEPVTVSWNSGALTSGVHTFPAVLQSSGLYSLSSVVTVPSSSLGTQTYICNVNHKPSNTKVDKKVEPKSCDKTHTCPPCPAPDLLGDDSVFLFPPKPKDTLMISRTPEVTCVVVDVSHEDGEVKFNWYVDGVEVHNAKTKPREEQYNSTYRVVSVLTVLHQDWLNGKEYKCKVSNKALPRPIEKTISKAKGQPREPQVYTLPPSRDELTKNQVSLTCLVKGFYPSDIAVEWESNGQPENNYKTTPPVLDSDGSFFLYSKLTVDKSRWQQGNVFSCSVMHEALHNHYTQESLSLSP
light: not shown
B2: IL6R-BP205/IL6R-L (antibody, human IgG1, kappa, name in EU numbering)
heavy: B1 heavy with D239G, Y298D
light: not shown
B3: IL6R-BP204/IL6R-L (antibody, human IgG1, kappa, name in EU numbering)
heavy: B1 heavy with D239G, K328A
light: not shown
B4: IL6R-BP130/IL6R-L (antibody, human IgG1, kappa, name in EU numbering)
heavy: B1 heavy with D239G, G273P, V325M, R332K
light: not shown
B5: IL6R-BP191/IL6R-L (antibody, human IgG1, kappa, name in EU numbering)
heavy: B1 heavy with D239G, H270D, K328A, R332K
light: not shown
B6: IL6R-BP086/IL6R-L (antibody, human IgG1, kappa, name in EU numbering)
heavy: B1 heavy with D235E, D239G, G273P, K328A, R332K
light: not shown
B7: IL6R-BP131/IL6R-L (antibody, human IgG1, kappa, name in EU numbering)
heavy: B1 heavy with G273P, R332K
light: not shown
B8: IL6R-BP146/IL6R-L (antibody, human IgG1, kappa, name in EU numbering)
heavy: B1 heavy with D235E, L236Y, G273P, K328A, R332A
light: not shown
B9: IL6R-BP085/IL6R-L (antibody, human IgG1, kappa, name in EU numbering)
heavy: B1 heavy with D235E, G273P, R332K
light: not shown
B10: IL6R-BP202/IL6R-L (antibody, human IgG1, kappa, name in EU numbering)
heavy: B1 heavy with D235E, K328A
light: not shown
B11: IL6R-BP176/IL6R-L (antibody, human IgG1, kappa, name in EU numbering)
heavy: B1 heavy with D239G, G273P, K328D, R332K
light: not shown
B12: IL6R-BP178/IL6R-L (antibody, human IgG1, kappa, name in EU numbering)
heavy: B1 heavy with R332K
light: not shown
B13: IL6R-2B253/IL6R-L (antibody, human IgG1, kappa, name in EU numbering)
heavy: B1 heavy with D239G, G273P, V325M, R332A
light: not shown
B14: IL6R-BP193/IL6R-L (antibody, human IgG1, kappa, name in EU numbering)
heavy: B1 heavy with D239G, H270D, R332K
light: not shown
B15: IL6R-BP182/IL6R-L (antibody, human IgG1, kappa, name in EU numbering)
heavy: B1 heavy with D239G, Y298D, R332K
light: not shown
B16: IL6R-BP082/IL6R-L (antibody, human IgG1, kappa, name in EU numbering)
heavy: B1 heavy with D239G, G273P, R332K
light: not shown
B17: IL6R-BP132/IL6R-L (antibody, human IgG1, kappa, name in EU numbering)
heavy: B1 heavy with D239G, G273P, K328A, R332K
light: not shown
B18: IL6R-BP195/IL6R-L (antibody, human IgG1, kappa, name in EU numbering)
heavy: B1 heavy with L236Y, H270D, Y298D, K328A, R332K
light: not shown
notes: Same printed alterations as IL6R-BP197
B19: IL6R-BP152/IL6R-L (antibody, human IgG1, kappa, name in EU numbering)
heavy: B1 heavy with L236Y, G273P, Y298D, K328A
light: not shown
B20: IL6R-BP084/IL6R-L (antibody, human IgG1, kappa, name in EU numbering)
heavy: B1 heavy with D235E, D239G, G273P, V325M, R332K
light: not shown
B21: IL6R-BP190/IL6R-L (antibody, human IgG1, kappa, name in EU numbering)
heavy: B1 heavy with D235E, H270D, R332K
light: not shown
B22: IL6R-BP151/IL6R-L (antibody, human IgG1, kappa, name in EU numbering)
heavy: B1 heavy with L236Y, G273P, K328A
light: not shown
B23: IL6R-BP210/IL6R-L (antibody, human IgG1, kappa, name in EU numbering)
heavy: B1 heavy with D235E, H270D
light: not shown
B24: IL6R-BP212/IL6R-L (antibody, human IgG1, kappa, name in EU numbering)
heavy: B1 heavy with D239G, H270D, Y298D
light: not shown
B25: IL6R-BP211/IL6R-L (antibody, human IgG1, kappa, name in EU numbering)
heavy: B1 heavy with D239G, H270D, K328A
light: not shown
B26: IL6R-BP188/IL6R-L (antibody, human IgG1, kappa, name in EU numbering)
heavy: B1 heavy with H270D, R332K
light: not shown
B27: IL6R-2B261/IL6R-L (antibody, human IgG1, kappa, name in EU numbering)
heavy: B1 heavy with D239G, G273P, Y298D, R332A
light: not shown
B28: IL6R-BP083/IL6R-L (antibody, human IgG1, kappa, name in EU numbering)
heavy: B1 heavy with D235E, D239G, G273P, Y298D, R332K
light: not shown
B29: IL6R-BP181/IL6R-L (antibody, human IgG1, kappa, name in EU numbering)
heavy: B1 heavy with D239G, K328A, R332K
light: not shown

Substitutions are numbered along the chain they refer to.

In the first test the target is T1, human FcγRIIa type H extracellular domain with C-terminal His tag (human, UniProt P12318 34-217).
T1 construct: extracellular domain; also called FcgRIIaH; FcγRIIa H
T1 sequence (looked up): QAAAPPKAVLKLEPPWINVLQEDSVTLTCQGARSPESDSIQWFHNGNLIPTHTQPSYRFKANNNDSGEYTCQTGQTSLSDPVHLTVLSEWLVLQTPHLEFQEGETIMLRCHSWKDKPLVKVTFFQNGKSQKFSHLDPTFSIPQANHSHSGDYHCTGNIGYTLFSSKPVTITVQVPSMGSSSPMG
Briefly: SPR; IL6R-BF648/IL6R-L=100. The procedure:
(§1) IL6R-L was utilized as the common antibody L chain for all of the antibodies, the antibodies were expressed and purified according to the method of Reference Example 1, and binding to each of the FcγRs (FcγRIa, FcγRIIa type H, FcγRIIa type R, FcγRIIb, and FcγRIIIa type V) was comprehensively evaluated by the method of Reference Example 2.
(§2) Relative binding activities were calculated for the results of analyzing interactions with the respective FcγRs according to the following method.
In turn, B1 came in with a relative binding activity of 359.
On the same count and under the same terms, the figure for B2 is 108; for B3 it is 137.
B4: the relative binding activity came to 224.
On the same count and under the same terms, the figure for B5 is 145.
On the same count and under the same terms, the result for B6 reads 116.
Molecule B7 had a relative binding activity of 253.
On the same count and under the same terms, the result for B8 reads 203; that for B9, 158.
Still for that read-out and setting: the result for B10 reads 285; that for B11, 128.
Same read-out and setting: the result for B12 reads 259; that for B13, 207.
With B14, the relative binding activity is 154.
The same measure, in the same setting: the figure for B15 is 139; for B16 it is 106; for B17 it is 130.
The molecule B18 showed a relative binding activity of 344.
The same measure, in the same setting: the figure for B19 is 548; for B20 it is 162; for B21 it is 224.
On the same count and under the same terms, the figure for B22 is 621.
For the molecule B23, the relative binding activity was 279.
In the case of B24, the relative binding activity came out at 135.

The target of a further test is T2, human FcγRIIb extracellular domain with C-terminal His tag (human, UniProt P31994 43-217).
T2 construct: extracellular domain; For crystals it was expressed with kifunensine and trimmed with Endo F1; also called FcgRIIb; FcγRIIb extracellular region
T2 sequence (looked up): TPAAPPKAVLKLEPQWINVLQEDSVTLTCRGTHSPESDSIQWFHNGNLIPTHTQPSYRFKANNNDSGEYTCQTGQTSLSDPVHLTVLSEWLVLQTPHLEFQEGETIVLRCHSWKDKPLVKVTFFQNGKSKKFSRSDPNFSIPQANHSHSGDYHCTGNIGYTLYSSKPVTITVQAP
The experiment in a line: SPR; IL6R-BF648/IL6R-L=100. The procedure:
as §1, §2
A general note: Surface plasmon resonance follows binding to a sensor surface in real time, without labels.
B1 returned a relative binding activity of 186.
In the case of B25, the relative binding activity was 165.
As for B2, the relative binding activity came out at 167.
Molecule B3 had a relative binding activity of 165.
As to B6, the relative binding activity came out at 137.
On the same count and under the same terms, the figure for B8 is 156; for B9 it is 152; for B10 it is 185.
Same read-out and setting: the figure for B11 is 147; for B12 it is 179.
Still for that read-out and setting: the figure for B13 is 156; for B14 it is 173; for B15 it is 173.
As for B16, the relative binding activity is 136.
B17 had a relative binding activity of 150.
Turning to B26, the relative binding activity came to 179.
B19 returned a relative binding activity of 178.
Molecule B20 returned a relative binding activity of 141.
The molecule B27 displayed a relative binding activity of 115.
Regarding B28, the relative binding activity was determined as 122.
The molecule B23 showed a relative binding activity of 187.
For the molecule B24, the relative binding activity amounted to 173.

The next test deals with T3, human FcγRIa extracellular domain with C-terminal His tag (human, UniProt P12314 16-292).
T3 construct: Whole entry named; also called FcgRIa; FcgIa
T3 sequence (P12314 16-292): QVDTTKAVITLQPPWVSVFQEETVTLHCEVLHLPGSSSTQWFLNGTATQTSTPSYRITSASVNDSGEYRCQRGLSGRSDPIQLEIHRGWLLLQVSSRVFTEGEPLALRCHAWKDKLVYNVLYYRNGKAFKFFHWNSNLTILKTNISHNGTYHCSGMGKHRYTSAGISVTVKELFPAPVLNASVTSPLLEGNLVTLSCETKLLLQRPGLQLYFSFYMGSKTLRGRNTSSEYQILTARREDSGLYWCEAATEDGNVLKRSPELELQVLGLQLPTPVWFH
The experiment in a line: SPR; IL6R-BF648/IL6R-L=100. The procedure:
as §1, §2
B1: the relative binding activity amounted to 57.
As to B25, the relative binding activity worked out at 128.
Same read-out and setting: the figure for B2 is 97; for B3 it is 110.
Still for that read-out and setting: the figure for B4 is 104.
Same read-out and setting: the result for B5 reads 125; that for B6, 72.
For the molecule B7, the relative binding activity was 33.
Same read-out and setting: the figure for B9 is 19.
Same read-out and setting: the result for B10 reads 43.
B11 had a relative binding activity of 102.
The same measure, in the same setting: the figure for B13 is 155; for B14 it is 113.
The same measure, in the same setting: the result for B15 reads 95.
Still for that read-out and setting: the figure for B16 is 74; for B17 it is 91.
The molecule B18 gave a relative binding activity of 68.
Take B26: the relative binding activity came to 74.
Take B19: the relative binding activity is 34.
Still for that read-out and setting: the figure for B20 is 109.
Take B21: the relative binding activity came to 50.
In turn, B27 displayed a relative binding activity of 100.
Still for that read-out and setting: the result for B22 reads 39; that for B28, 50; that for B23, 57.
On the same count and under the same terms, the result for B24 reads 117.

The target in a further test is T4, human FcγRIIIa type V extracellular domain with C-terminal His tag (human, UniProt P08637 17-208).
T4 construct: extracellular domain; also called FcgRIIIaV; FcγRIIIaV
T4 sequence (P08637 17-208 F176V): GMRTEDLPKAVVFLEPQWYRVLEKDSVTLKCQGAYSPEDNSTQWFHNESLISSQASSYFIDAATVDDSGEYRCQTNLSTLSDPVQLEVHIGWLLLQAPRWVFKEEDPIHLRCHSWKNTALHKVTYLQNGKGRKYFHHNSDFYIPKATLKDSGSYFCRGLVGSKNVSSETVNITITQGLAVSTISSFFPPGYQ
The experiment in a line: SPR; IL6R-BF648/IL6R-L=100. As for the experimental part: as §1, §2
Molecule B25 registered a relative binding activity of 87.
The same measure, in the same setting: the figure for B5 is 142.
With B6, the relative binding activity was found to be 123.
B7 came in with a relative binding activity of 118.
On the same count and under the same terms, the result for B9 reads 104.
B13 yielded a relative binding activity of 126.
In turn, B16 gave a relative binding activity of 87.
The same measure, in the same setting: the figure for B18 is 221.
For B20, the relative binding activity was determined as 106.
Same read-out and setting: the figure for B21 is 155.
The same measure, in the same setting: the result for B27 reads 87; that for B29, 122; that for B22, 221.
Regarding B28, the relative binding activity was 107.

For the origin of these results see patent publication US20150299296A1 (Chugai, published 2015).
